According to patent US20210246218A1 (LYVGEN BIOPHARMA SUZHOU, published 2021):
Several values for one entry are separate records, joined by “and”; a condition that tells them apart may be missing. Equal values may be shown once.

Legend:
human CD137 on cells = molecular target: T1, human CD137 on cells (human, UniProt Q07011 24-255); assay: flow cytometry, cellular CD137; human CD137
T1 construct: whole, on cells; also called CHO-human CD137; CHO cells over-expressing human CD137
Protocol: (§1) CHO cells over-expressing human or cynomolgus monkey CD137 and CHO parental cells were harvested by centrifugation at 1000 g for 3 minutes. The cells were resuspended in ice cold assay buffer at 2*10\hat{ }6/mL and transferred to 96-well V-bottom plate with 100 μL/well. […] The plate was mixed and incubated in the dark for 2 hours at 4° C. The cells were washed 3 times by centrifugation at 1000 g for 3 min and resuspended in ice cold assay buffer containing goat F(ab′)₂ anti-human IgG-Fc (PE), 100 μL/well. The plate was incubated in the dark for another 1 hour at 4° C. The cells were washed 2 times by centrifugation at 1000 g for 3 min and resuspended in ice cold assay buffer containing 2% PFA. The cells were then subjected to the flow cytometer immediately.
(§2) Mean fluorescence intensity (MFI) was calculated from the total cell population in the FCM experiments. Graphpad 7.0, “[Agonist] vs. response—Variable slope (four parameters)” was used to plot the binding MFI in dose response and to calculate FCM binding EC₅₀ values.

[1] = molecular target: T2, recombinant cynomolgus monkey CD137 receptor protein (cynomolgus monkey, UniProt A9YYE7 24-186); assay: ELISA, cynomolgus CD137 protein coated; average, n=6
T2 construct: Coated on ELISA plates; also called Cyno CD137
Protocol: The human or cynomolgus monkey CD137 receptor protein was diluted in DPBS to 1 μg/mL, and then coated onto an ELISA plate (Corning, Catalog number: 9018, high binding) with a volume of 100 μL (0.1 μg) or 50 μL (0.05 μg) per well, and incubated at 4° C. overnight. The plate was decanted and washed once; assay diluent was added 200 μL/well. After a one-hour incubation at room temperature, the plate was washed with PBST one time. […] The plate was incubated one hour at room temperature and then washed three times with PBST. Goat anti-human IgG-H+L HRP conjugated at 1:100,000 dilution was added to the plate at 100 μL/well. The plate was then incubated one hour at room temperature followed by washing with PBST four times. The TMB substrate solution was added at 100 μL/well. The color was allowed to develop for 15 minutes, and was stopped with 100 μL/well 2N H₂SO₄. Absorbance at 450 nm and 620 nm was determined by a Tecan F200 Pro reader.
Graphpad 7.0, “[Agonist] vs. response—Variable slope (four parameters)” was used to plot the binding data and calculate binding EC₅₀ values.

[2] = molecular target: T3, cynomolgus monkey CD137 on cells (cynomolgus monkey, UniProt A9YYE7 24-254); assay: flow cytometry on CHO cells over-expressing cynomolgus CD137; average, n=6
T3 construct: whole, on cells; also called CHO-cynomolgus monkey CD137
Protocol: as §1, §2

Ly052 = molecular target: T4, Ly052; assay: ELISA, CD137 protein coated, clone 3712 titrated; flat curve (see non_binding)
T4 chain: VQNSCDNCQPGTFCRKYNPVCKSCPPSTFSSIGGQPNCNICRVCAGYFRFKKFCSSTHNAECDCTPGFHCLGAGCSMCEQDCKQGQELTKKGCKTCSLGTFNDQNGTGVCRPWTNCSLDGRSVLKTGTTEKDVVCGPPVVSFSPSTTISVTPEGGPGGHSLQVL
Protocol: (§3) For the data shown in FIGS. 16C-D, chimeric CD137 receptor protein samples were diluted in DPBS to 5 μg/mL and then coated onto an ELISA plate (Corning, Catalog number: 9018, high binding) at 50 μL (0.25 μg) per well, and incubated at 4° C. overnight. The plate was decanted and washed once; assay diluent was added at 200 μL/well. After a 1-hour incubation at room temperature, the plate was washed with PBST one time. […] The plate was incubated 1 hour at room temperature and then washed three times with PBST. Goat anti-human IgG-H+L HRP-conjugated at 1:100,000 dilution or goat anti-mouse IgG (H+L) secondary antibody, HRP, 10 at 1:50,000 dilution was added to the plate at 100 μL/well. The plate was incubated 1 hour at room temperature followed by washing with PBST four times. The TMB substrate solution was added 100 μL/well. The color was permitted to develop for 15 minutes and then 100 μL/well 2N H2SO4 was added to terminate the reaction. Absorbance at 450 nm and 620 nm was determined by a Tecan F200 Pro reader.

Ly110 = molecular target: T5, Ly110; assay: ELISA, CD137 protein coated, clone 3712 titrated; sigmoid with a low plateau of about 0.45 (huCD137 about 1.5)
T5 chain: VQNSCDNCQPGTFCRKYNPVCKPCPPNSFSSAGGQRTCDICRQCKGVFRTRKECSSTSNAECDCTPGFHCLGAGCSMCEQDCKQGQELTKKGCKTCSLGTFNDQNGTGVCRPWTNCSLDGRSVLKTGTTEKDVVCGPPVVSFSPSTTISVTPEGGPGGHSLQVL
Protocol: as §3

Ly050 = molecular target: T6, Ly050; assay: ELISA, clone 3712-IgG1v coated, CD137 protein titrated (EC50 is a concentration of the CD137 protein); full sigmoid, plateau about 2.2
T6 chain: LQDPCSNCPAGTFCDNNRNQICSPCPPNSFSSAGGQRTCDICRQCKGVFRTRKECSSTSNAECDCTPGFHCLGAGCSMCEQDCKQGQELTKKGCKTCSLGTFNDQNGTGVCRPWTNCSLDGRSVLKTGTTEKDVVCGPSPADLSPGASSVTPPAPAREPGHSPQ
Protocol: The plate was decanted and washed once; assay diluent was added 200 μL/well. After one-hour incubation at room temperature, the plate was washed with PBST one time. CD137 receptor human/mouse chimeras were diluted in assay diluent to 100 or 10 μg/mL, and then a 4-fold serial dilution in assay diluent for 11 points to final concentrations of 100000, 25000, 6250, 1562.5, 390.63, 97.66, 24.41, 6.10, 1.53, 0.38 and 0.095 ng/mL or 10000, 2500, 625, 156.25, 39.06, 9.77, 2.44, 0.61, 0.15, 0.038 and 0.0095 ng/mL. The diluted CD137 receptor was added to the assay plate, 50 μL/well, in duplicate. The plate was incubated one hour at room temperature and then washed three times with PBST. Goat anti-human IgG-H+L HRP conjugated at 1:100,000 20 dilution was added to the plate at 100 μL/well. The plate was then incubated one hour at room temperature followed by washing with PBST four times. The TMB substrate solution was added at 100 μL/well. The color was allowed to develop for 15 minutes, and was stopped with 100 μL/well 2N H2SO4. Absorbance at 450 nm and 620 nm was determined by a Tecan F200 Pro reader.

T3 sequence (A9YYE7 entry or part of it): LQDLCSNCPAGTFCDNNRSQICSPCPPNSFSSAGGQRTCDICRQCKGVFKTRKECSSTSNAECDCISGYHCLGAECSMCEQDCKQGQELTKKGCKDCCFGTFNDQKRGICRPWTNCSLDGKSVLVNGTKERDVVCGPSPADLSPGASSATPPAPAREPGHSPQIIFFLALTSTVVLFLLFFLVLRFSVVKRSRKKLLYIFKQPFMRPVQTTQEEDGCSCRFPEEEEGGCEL
T2 sequence (A9YYE7 entry or part of it): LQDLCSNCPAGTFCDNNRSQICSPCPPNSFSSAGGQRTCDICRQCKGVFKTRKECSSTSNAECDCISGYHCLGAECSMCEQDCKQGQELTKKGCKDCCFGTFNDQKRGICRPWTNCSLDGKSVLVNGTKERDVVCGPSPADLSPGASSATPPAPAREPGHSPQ
T1 sequence (Q07011 24-255): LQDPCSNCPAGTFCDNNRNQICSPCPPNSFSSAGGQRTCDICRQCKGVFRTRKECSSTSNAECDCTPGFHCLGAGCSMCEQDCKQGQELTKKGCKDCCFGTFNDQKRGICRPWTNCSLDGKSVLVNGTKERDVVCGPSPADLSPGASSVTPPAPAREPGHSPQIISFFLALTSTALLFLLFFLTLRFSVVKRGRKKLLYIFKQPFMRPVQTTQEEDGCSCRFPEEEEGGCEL

B1: Clone 3712-IgG1v (IgG1v/kappa) (antibody)
heavy: QVQLVQSGAEVKKPGASVKVSCKASGYTFAGFEMHWVRQAPGQGLEWMGAIDPKTGGTDYNQKFKDRVTMTRDTSISTAYMELSRLRSDDTAVYYCARDLGYFDVWGQGTLVTVSSASTKGPSVFPLAPSSKSTSGGTAALGCLVKDYFPEPVTVSWNSGALTSGVHTFPAVLQSSGLYSLSSVVTVPSSSLGTQTYICNVNHKPSNTKVDKKVEPKSCDKTHTCPPCPAPELLGPSVFLFPPKPKDTLMISRTPEVTCVVVDVEHEDPEVKFNWYVDGVEVHNAKTKPREEQYNSTYRVVSVLTVLHQDWLNGKEYKCKVSNKALPAPIEKTISKAKGQPREPQVYTLPPSREEMTKNQVSLTCLVKGFYPSDIAVEWESNGQPENNYKTTPPVLDSDGSFFLYSKLTVDKSRWQQGNVFSCSVMHEALHNHYTQKSLSLSPGK
light: DIQMTQSPSSLSASVGDRVTITCRASQDIRSNLNWYQQKPGGAVKLLIYYTSRLHSGVPSRFSGSGSGTDYTLTISSLQPEDFATYFCQQSEKLPRTFGGGTKVEIRRTVAAPSVFIFPPSDEQLKSGTASVVCLLNNFYPREAKVQWKVDNALQSGNSQESVTEQDSKDSTYSLSSTLTLSKADYEKHKVYACEVTHQGLSSPVTKSFNRGEC
notes: copies: 2 + 2
EC50 (human CD137 on cells): ~0.3 nM | EC50 [1]: 0.33 nM and 0.0474 µg/mL | EC50 [2]: 0.26 nM and 0.0369 µg/mL | EC50 (Ly052): 0.749 ng/mL | EC50 (Ly110): 57.8 ng/mL | EC50 (Ly050): 3.39 ng/mL
